Biological target: MBP-FhtR (Faecalis heme transport Regulator fused to the maltose binding protein) (Enterococcus faecalis OG1RF)
Assay: SEC

MBP-FhtR (Faecalis heme transport Regulator fused to the maltose binding protein) (natural protein)
stoichiometry N: 2
